T1: human IL-12 (human, UniProt P29460 23-328; P29459 23-219)
T1 construct: also called Interleukin-12
T1 sequence 1: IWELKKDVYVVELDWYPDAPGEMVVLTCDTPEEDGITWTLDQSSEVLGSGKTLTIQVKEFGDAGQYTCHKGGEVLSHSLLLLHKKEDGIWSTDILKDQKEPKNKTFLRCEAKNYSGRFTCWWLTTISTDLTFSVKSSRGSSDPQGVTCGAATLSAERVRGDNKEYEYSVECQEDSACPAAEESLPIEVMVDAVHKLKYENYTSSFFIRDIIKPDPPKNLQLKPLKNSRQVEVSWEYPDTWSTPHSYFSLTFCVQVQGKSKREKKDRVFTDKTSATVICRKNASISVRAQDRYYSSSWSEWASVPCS
T1 sequence 2: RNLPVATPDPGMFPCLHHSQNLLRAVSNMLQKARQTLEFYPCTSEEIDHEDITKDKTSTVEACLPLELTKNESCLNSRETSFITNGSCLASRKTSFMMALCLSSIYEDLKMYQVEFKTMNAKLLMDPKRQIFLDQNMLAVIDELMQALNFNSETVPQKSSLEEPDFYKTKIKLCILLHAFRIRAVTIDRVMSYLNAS


Target: T1, human IL-12
Assay: SPR (Biacore T200), 37 C, pH 7.4; captured antibody, IL-12 analyte
Experimental: The affinity of anti-IL-12 antibodies binding to human IL-12 at pH 7.4 were determined at 37 degrees C. using Biacore T200 instrument (Cytiva). Anti-human Fc antibody (Cytiva) was immobilized onto all flow cells (FCs) of a CM4 sensor chip using amine coupling kit (Cytiva). All antibodies and analytes were prepared in ACES pH 7.4 containing 20 mM ACES, 150 mM NaCl, 0.05% Tween 20, 0.005% NaN₃. Each antibody was captured onto the sensor surface by anti-human Fc antibody. Antibody capture levels were aimed at 50 response unit (RU). 5 nM of human IL-12 were injected as analyte, followed by dissociation. Sensor surface was regenerated each cycle with 3M MgCl₂. […] Based on the results in Table 9, it is observed that binding kinetics of anti-IL-12 antibody AbI variants towards IL-12 were not drastically changed compared to control (−/−).

Binder | Kd
Anti-IL-12 antibody Ab1 (Ab101H-12aa-C8/Ab102L-SK1) (antibody, Homodimer of light chain and heavy chain; also called -/- (control)) heavy: not shown light: DIVMTQSPLSLPVTPGEPASISCRASQSISINLHWYQQKPGQAPRLLIYFASQSISGVPSRFSGSGSGTDFTLTISSLQPEDFATYYCQQSNSFPLTFGQGTKVEIKRTVAAPSVFIFPPSDEQLKSGTASVVCLLNNFYPREAKVQWKVDNALQSGNSQESVTEQDSKDSTYSLSSTLTLSKADYEKHKVYACEVTHQGLSSPVTKSFNRGEC | 0.948 nM
Anti-IL-12 antibody Ab1 variant -/Y87A VL (antibody, V domains shown, Ab1 with VH/VL interface substitutions; Kabat numbering) VH: QVQLVQSGAEVKKPGSSVKVSCKASGGTFSDYYLHWVRQAPGQGLEWMGWIDPENGDTEYAPKFQGRVTITADESTSTAYMELSSLRSEDTAVYYCARNKELRYFDVWGQGTLVTVSS VL: DIVMTQSPLSLPVTPGEPASISCRASQSISINLHWYQQKPGQAPRLLIYFASQSISGVPSRFSGSGSGTDFTLTISSLQPEDFATYACQQSNSFPLTFGQGTKVEIKR | 1.21 nM
Anti-IL-12 antibody Ab1 variant F100aI VH/A43Q, Y49A VL (antibody, name in Kabat numbering, V domains shown, Ab1 with VH/VL interface substitutions; Kabat numbering) VH: QVQLVQSGAEVKKPGSSVKVSCKASGGTFSDYYLHWVRQAPGQGLEWMGWIDPENGDTEYAPKFQGRVTITADESTSTAYMELSSLRSEDTAVYYCARNKELRYIDVWGQGTLVTVSS VL: DIVMTQSPLSLPVTPGEPASISCRASQSISINLHWYQQKPGQQPRLLIAFASQSISGVPSRFSGSGSGTDFTLTISSLQPEDFATYYCQQSNSFPLTFGQGTKVEIKR | 1.33 nM
Anti-IL-12 antibody Ab1 variant -/Y87L VL (antibody, V domains shown, Ab1 with VH/VL interface substitutions; Kabat numbering) VH: QVQLVQSGAEVKKPGSSVKVSCKASGGTFSDYYLHWVRQAPGQGLEWMGWIDPENGDTEYAPKFQGRVTITADESTSTAYMELSSLRSEDTAVYYCARNKELRYFDVWGQGTLVTVSS VL: DIVMTQSPLSLPVTPGEPASISCRASQSISINLHWYQQKPGQAPRLLIYFASQSISGVPSRFSGSGSGTDFTLTISSLQPEDFATYLCQQSNSFPLTFGQGTKVEIKR | 1.46 nM
Anti-IL-12 antibody Ab1 variant -/Y49A VL (antibody, V domains shown, Ab1 with VH/VL interface substitutions; Kabat numbering) VH: QVQLVQSGAEVKKPGSSVKVSCKASGGTFSDYYLHWVRQAPGQGLEWMGWIDPENGDTEYAPKFQGRVTITADESTSTAYMELSSLRSEDTAVYYCARNKELRYFDVWGQGTLVTVSS VL: DIVMTQSPLSLPVTPGEPASISCRASQSISINLHWYQQKPGQAPRLLIAFASQSISGVPSRFSGSGSGTDFTLTISSLQPEDFATYYCQQSNSFPLTFGQGTKVEIKR | 1.74 nM
Anti-IL-12 antibody Ab1 variant -/L46Q VL (antibody, V domains shown, Ab1 with VH/VL interface substitutions; Kabat numbering) VH: QVQLVQSGAEVKKPGSSVKVSCKASGGTFSDYYLHWVRQAPGQGLEWMGWIDPENGDTEYAPKFQGRVTITADESTSTAYMELSSLRSEDTAVYYCARNKELRYFDVWGQGTLVTVSS VL: DIVMTQSPLSLPVTPGEPASISCRASQSISINLHWYQQKPGQAPRQLIYFASQSISGVPSRFSGSGSGTDFTLTISSLQPEDFATYYCQQSNSFPLTFGQGTKVEIKR | 1.62 nM
Anti-IL-12 antibody Ab1 variant -/P44S VL (antibody, V domains shown, Ab1 with VH/VL interface substitutions; Kabat numbering) VH: QVQLVQSGAEVKKPGSSVKVSCKASGGTFSDYYLHWVRQAPGQGLEWMGWIDPENGDTEYAPKFQGRVTITADESTSTAYMELSSLRSEDTAVYYCARNKELRYFDVWGQGTLVTVSS VL: DIVMTQSPLSLPVTPGEPASISCRASQSISINLHWYQQKPGQASRLLIYFASQSISGVPSRFSGSGSGTDFTLTISSLQPEDFATYYCQQSNSFPLTFGQGTKVEIKR | 1.17 nM
Anti-IL-12 antibody Ab1 variant F100aI VH/A43Q, L46Q, Y49A VL (antibody, name in Kabat numbering, V domains shown, Ab1 with VH/VL interface substitutions; Kabat numbering) VH: QVQLVQSGAEVKKPGSSVKVSCKASGGTFSDYYLHWVRQAPGQGLEWMGWIDPENGDTEYAPKFQGRVTITADESTSTAYMELSSLRSEDTAVYYCARNKELRYIDVWGQGTLVTVSS VL: DIVMTQSPLSLPVTPGEPASISCRASQSISINLHWYQQKPGQQPRQLIAFASQSISGVPSRFSGSGSGTDFTLTISSLQPEDFATYYCQQSNSFPLTFGQGTKVEIKR | 3.56 nM
Anti-IL-12 antibody Ab1 variant -/Y87M VL (antibody, V domains shown, Ab1 with VH/VL interface substitutions; Kabat numbering) VH: QVQLVQSGAEVKKPGSSVKVSCKASGGTFSDYYLHWVRQAPGQGLEWMGWIDPENGDTEYAPKFQGRVTITADESTSTAYMELSSLRSEDTAVYYCARNKELRYFDVWGQGTLVTVSS VL: DIVMTQSPLSLPVTPGEPASISCRASQSISINLHWYQQKPGQAPRLLIYFASQSISGVPSRFSGSGSGTDFTLTISSLQPEDFATYMCQQSNSFPLTFGQGTKVEIKR | 1.22 nM

More lines, in order of falling Kd, values ahead:

Kd | Binder
1.03 nM | Anti-IL-12 antibody Ab1 variant -/F98A VL (antibody, Ab1 with VH/VL interface substitutions; Kabat numbering) heavy: not shown light: DIVMTQSPLSLPVTPGEPASISCRASQSISINLHWYQQKPGQAPRLLIYFASQSISGVPSRFSGSGSGTDFTLTISSLQPEDFATYYCQQSNSFPLTAGQGTKVEIKRTVAAPSVFIFPPSDEQLKSGTASVVCLLNNFYPREAKVQWKVDNALQSGNSQESVTEQDSKDSTYSLSSTLTLSKADYEKHKVYACEVTHQGLSSPVTKSFNRGEC
0.94 nM | Anti-IL-12 antibody Ab1 variant -/P44Q VL (antibody, V domains shown, Ab1 with VH/VL interface substitutions; Kabat numbering) VH: QVQLVQSGAEVKKPGSSVKVSCKASGGTFSDYYLHWVRQAPGQGLEWMGWIDPENGDTEYAPKFQGRVTITADESTSTAYMELSSLRSEDTAVYYCARNKELRYFDVWGQGTLVTVSS VL: DIVMTQSPLSLPVTPGEPASISCRASQSISINLHWYQQKPGQAQRLLIYFASQSISGVPSRFSGSGSGTDFTLTISSLQPEDFATYYCQQSNSFPLTFGQGTKVEIKR
0.937 nM | Anti-IL-12 antibody Ab1 variant -/A43Q VL (antibody, V domains shown, Ab1 with VH/VL interface substitutions; Kabat numbering) VH: QVQLVQSGAEVKKPGSSVKVSCKASGGTFSDYYLHWVRQAPGQGLEWMGWIDPENGDTEYAPKFQGRVTITADESTSTAYMELSSLRSEDTAVYYCARNKELRYFDVWGQGTLVTVSS VL: DIVMTQSPLSLPVTPGEPASISCRASQSISINLHWYQQKPGQQPRLLIYFASQSISGVPSRFSGSGSGTDFTLTISSLQPEDFATYYCQQSNSFPLTFGQGTKVEIKR
0.858 nM | Anti-IL-12 antibody Ab1 variant -/P44A VL (antibody, V domains shown, Ab1 with VH/VL interface substitutions; Kabat numbering) VH: QVQLVQSGAEVKKPGSSVKVSCKASGGTFSDYYLHWVRQAPGQGLEWMGWIDPENGDTEYAPKFQGRVTITADESTSTAYMELSSLRSEDTAVYYCARNKELRYFDVWGQGTLVTVSS VL: DIVMTQSPLSLPVTPGEPASISCRASQSISINLHWYQQKPGQAARLLIYFASQSISGVPSRFSGSGSGTDFTLTISSLQPEDFATYYCQQSNSFPLTFGQGTKVEIKR
0.685 nM | Anti-IL-12 antibody Ab1 variant -/F98M VL (antibody, Ab1 with VH/VL interface substitutions; Kabat numbering) heavy: not shown light: DIVMTQSPLSLPVTPGEPASISCRASQSISINLHWYQQKPGQAPRLLIYFASQSISGVPSRFSGSGSGTDFTLTISSLQPEDFATYYCQQSNSFPLTMGQGTKVEIKRTVAAPSVFIFPPSDEQLKSGTASVVCLLNNFYPREAKVQWKVDNALQSGNSQESVTEQDSKDSTYSLSSTLTLSKADYEKHKVYACEVTHQGLSSPVTKSFNRGEC
0.571 nM | Anti-IL-12 antibody Ab1 variant F100aI VH/- (antibody, name in Kabat numbering, V domains shown, Ab1 with a CDR substitution at the VH/VL interface; Kabat numbering) VH: QVQLVQSGAEVKKPGSSVKVSCKASGGTFSDYYLHWVRQAPGQGLEWMGWIDPENGDTEYAPKFQGRVTITADESTSTAYMELSSLRSEDTAVYYCARNKELRYIDVWGQGTLVTVSS VL: DIVMTQSPLSLPVTPGEPASISCRASQSISINLHWYQQKPGQAPRLLIYFASQSISGVPSRFSGSGSGTDFTLTISSLQPEDFATYYCQQSNSFPLTFGQGTKVEIKR
0.499 nM | Anti-IL-12 antibody Ab1 variant -/F98L VL (antibody, Ab1 with VH/VL interface substitutions; Kabat numbering) heavy: not shown light: DIVMTQSPLSLPVTPGEPASISCRASQSISINLHWYQQKPGQAPRLLIYFASQSISGVPSRFSGSGSGTDFTLTISSLQPEDFATYYCQQSNSFPLTLGQGTKVEIKRTVAAPSVFIFPPSDEQLKSGTASVVCLLNNFYPREAKVQWKVDNALQSGNSQESVTEQDSKDSTYSLSSTLTLSKADYEKHKVYACEVTHQGLSSPVTKSFNRGEC
